The record followed here is IntAct's records for PubMed 9537418.

B1: Merlin (Homo sapiens), P35240-3 (parent)
chain: MAGAIASRMSFSSLKRKQPKTFTVRIVTMDAEMEFNCEMKWKGKDLFDLVCRTLGLRETWFFGLQYTIKDTVAWLKMDKKVLDHDVSKEEPVTFHFLAKFYPENAEEELVQEITQHLFFLQVKKQILDEKIYCPPEASVLLASYAVQAKYGDYDPSVHKRGFLAQEELLPKRVINLYQMTPEMWEERITAWYAEHRGRARDEAEMEYLKIAQDLEMYGVNYFAIRNKKGTELLLGVDALGLHIYDPENRLTPKISFPWNEIRNISYSDKEFTIKPLDKKIDVFKFNSSKLRVNKLILQLCIGNHDLFMRRRKADSLEVQQMKAQAREEKARKQMERQRLAREKQMREEAERTRDELERRLLQMKEEATMANEALMRSEETADLLAEKAQITEEEAKLLAQKAAEAEQEMQRIKATAIRTEEEKRLMEQKVLEAEVLALKMAEESERRAKEADQLKQDLQEAREAERRAKQKLLEIATKPTYPPMNPIPAPLPPDIPSFNLIGDSLSFDFKDTDMKRLSMEIEKEKVEYMEKSKHLQEQLNELKTEIEALKLKERETALDILHNENSDRGGSSKHNTIKKPQAQGRRPICI

In the assay the parent is B1. Particulars: with sptb2_human SPTBN1, Q01082.
Sequence of sptb2_human SPTBN1, Q01082 (Q01082 whole entry): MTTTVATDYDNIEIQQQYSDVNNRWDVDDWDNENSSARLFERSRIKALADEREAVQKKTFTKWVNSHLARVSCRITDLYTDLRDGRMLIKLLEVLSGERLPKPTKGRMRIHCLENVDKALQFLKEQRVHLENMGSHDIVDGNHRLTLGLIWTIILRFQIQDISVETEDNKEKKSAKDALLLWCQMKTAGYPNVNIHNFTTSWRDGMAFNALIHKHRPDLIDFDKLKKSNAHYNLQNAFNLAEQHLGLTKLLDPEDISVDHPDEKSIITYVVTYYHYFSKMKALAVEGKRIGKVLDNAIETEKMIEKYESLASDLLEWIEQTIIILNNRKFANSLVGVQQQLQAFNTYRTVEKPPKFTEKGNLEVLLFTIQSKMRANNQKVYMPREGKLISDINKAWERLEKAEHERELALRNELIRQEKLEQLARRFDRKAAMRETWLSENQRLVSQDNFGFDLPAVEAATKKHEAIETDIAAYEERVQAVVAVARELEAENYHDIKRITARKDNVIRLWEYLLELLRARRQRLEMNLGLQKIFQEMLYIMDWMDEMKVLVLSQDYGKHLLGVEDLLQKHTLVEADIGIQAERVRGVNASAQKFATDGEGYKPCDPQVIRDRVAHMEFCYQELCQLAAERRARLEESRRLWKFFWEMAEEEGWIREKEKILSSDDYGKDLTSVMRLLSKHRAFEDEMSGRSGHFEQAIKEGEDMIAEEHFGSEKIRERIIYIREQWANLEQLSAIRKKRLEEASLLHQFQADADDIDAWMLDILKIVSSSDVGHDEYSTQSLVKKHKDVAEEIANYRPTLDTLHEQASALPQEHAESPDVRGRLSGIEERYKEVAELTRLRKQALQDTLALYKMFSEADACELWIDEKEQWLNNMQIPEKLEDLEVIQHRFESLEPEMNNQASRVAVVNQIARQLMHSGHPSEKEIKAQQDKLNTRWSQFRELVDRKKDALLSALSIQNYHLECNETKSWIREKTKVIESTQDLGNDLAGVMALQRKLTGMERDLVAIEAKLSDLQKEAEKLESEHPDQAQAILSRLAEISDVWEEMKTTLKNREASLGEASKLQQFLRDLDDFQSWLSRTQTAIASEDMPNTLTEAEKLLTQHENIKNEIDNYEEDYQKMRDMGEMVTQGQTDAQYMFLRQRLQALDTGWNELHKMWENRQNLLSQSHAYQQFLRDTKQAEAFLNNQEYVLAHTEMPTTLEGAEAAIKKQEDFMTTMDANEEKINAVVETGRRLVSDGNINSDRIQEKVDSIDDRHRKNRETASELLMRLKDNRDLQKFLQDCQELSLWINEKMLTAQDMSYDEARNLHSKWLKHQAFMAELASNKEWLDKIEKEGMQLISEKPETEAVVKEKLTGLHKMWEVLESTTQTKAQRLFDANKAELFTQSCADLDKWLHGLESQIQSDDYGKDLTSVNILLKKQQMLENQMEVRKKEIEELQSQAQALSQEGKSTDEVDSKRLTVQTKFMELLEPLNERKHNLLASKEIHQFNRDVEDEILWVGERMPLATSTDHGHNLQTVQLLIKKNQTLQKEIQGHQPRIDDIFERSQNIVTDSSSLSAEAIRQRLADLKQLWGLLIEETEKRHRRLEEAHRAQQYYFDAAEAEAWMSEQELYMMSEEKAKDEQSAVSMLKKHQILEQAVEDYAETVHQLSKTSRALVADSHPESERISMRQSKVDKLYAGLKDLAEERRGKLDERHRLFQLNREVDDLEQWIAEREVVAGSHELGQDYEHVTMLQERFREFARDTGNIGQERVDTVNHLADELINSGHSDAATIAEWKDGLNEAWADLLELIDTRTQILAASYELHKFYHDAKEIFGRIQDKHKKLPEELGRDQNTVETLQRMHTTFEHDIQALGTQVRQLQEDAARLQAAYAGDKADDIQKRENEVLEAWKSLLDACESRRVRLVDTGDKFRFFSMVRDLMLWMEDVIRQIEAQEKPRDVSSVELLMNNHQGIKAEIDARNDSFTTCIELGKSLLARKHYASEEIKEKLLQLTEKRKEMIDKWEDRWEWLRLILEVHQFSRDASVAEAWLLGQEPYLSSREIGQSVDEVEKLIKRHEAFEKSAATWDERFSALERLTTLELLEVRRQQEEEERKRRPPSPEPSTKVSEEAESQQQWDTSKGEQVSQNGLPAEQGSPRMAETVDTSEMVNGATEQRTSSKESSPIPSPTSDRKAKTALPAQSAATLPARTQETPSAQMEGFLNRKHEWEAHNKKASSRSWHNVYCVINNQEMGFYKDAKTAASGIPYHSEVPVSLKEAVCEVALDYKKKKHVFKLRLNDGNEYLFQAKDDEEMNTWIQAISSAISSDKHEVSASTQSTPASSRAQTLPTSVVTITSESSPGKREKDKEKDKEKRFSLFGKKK
Q538P: the “effect of a mutation on the interaction” value is “disrupting interaction strength”.
With L360P the entry was “decreasing interaction strength”; with L535P, “decreasing interaction strength”.
